B1: 4E6-Hu penta (4E6 hu pentamer) (other)
chain: EVQLLESGGGLVQPGGSLRLSCAASGRTFGSIRVGWFRQAPGKGREFVSAINRNDGTTYYADSVKGRFTISRDNSKNTVYLQMNSLRPEDTAVYYCAAGLQYNRAADRVPVGAVYWGQGTLVTVSSGGGGSGGGGSGGGGSGGGGSGGGGSGGGGSGGGGSEVQLLESGGGLVQPGGSLRLSCAASGRTFGSIRVGWFRQAPGKGREFVSAINRNDGTTYYADSVKGRFTISRDNSKNTVYLQMNSLRPEDTAVYYCAAGLQYNRAADRVPVGAVYWGQGTLVTVSSGGGGSGGGGSGGGGSGGGGSGGGGSGGGGSGGGGSEVQLLESGGGLVQPGGSLRLSCAASGRTFGSIRVGWFRQAPGKGREFVSAINRNDGTTYYADSVKGRFTISRDNSKNTVYLQMNSLRPEDTAVYYCAAGLQYNRAADRVPVGAVYWGQGTLVTVSSGGGGSGGGGSGGGGSGGGGSGGGGSGGGGSGGGGSEVQLLESGGGLVQPGGSLRLSCAASGRTFGSIRVGWFRQAPGKGREFVSAINRNDGTTYYADSVKGRFTISRDNSKNTVYLQMNSLRPEDTAVYYCAAGLQYNRAADRVPVGAVYWGQGTLVTVSSGGGGSGGGGSGGGGSGGGGSGGGGSGGGGSGGGGSEVQLLESGGGLVQPGGSLRLSCAASGRTFGSIRVGWFRQAPGKGREFVSAINRNDGTTYYADSVKGRFTISRDNSKNTVYLQMNSLRPEDTAVYYCAAGLQYNRAADRVPVGAVYWGQGTLVTVSS
B2: 11H6-Hu penta (11H6 hu pentamer) (other)
chain: EVQLLESGGGLVQPGGSLRLSCAASGTFDKINNMGWYRQAPGKQRDLVAQITPGGITDYADSVKGRFTISRDNSKNTLYLQMNSLRPEDTAVYYCNAEILKRAYIDVYVNYWGQGTLVTVSSGGGGSGGGGSGGGGSGGGGSGGGGSGGGGSGGGGSEVQLLESGGGLVQPGGSLRLSCAASGTFDKINNMGWYRQAPGKQRDLVAQITPGGITDYADSVKGRFTISRDNSKNTLYLQMNSLRPEDTAVYYCNAEILKRAYIDVYVNYWGQGTLVTVSSGGGGSGGGGSGGGGSGGGGSGGGGSGGGGSGGGGSEVQLLESGGGLVQPGGSLRLSCAASGTFDKINNMGWYRQAPGKQRDLVAQITPGGITDYADSVKGRFTISRDNSKNTLYLQMNSLRPEDTAVYYCNAEILKRAYIDVYVNYWGQGTLVTVSSGGGGSGGGGSGGGGSGGGGSGGGGSGGGGSGGGGSEVQLLESGGGLVQPGGSLRLSCAASGTFDKINNMGWYRQAPGKQRDLVAQITPGGITDYADSVKGRFTISRDNSKNTLYLQMNSLRPEDTAVYYCNAEILKRAYIDVYVNYWGQGTLVTVSSGGGGSGGGGSGGGGSGGGGSGGGGSGGGGSGGGGSEVQLLESGGGLVQPGGSLRLSCAASGTFDKINNMGWYRQAPGKQRDLVAQITPGGITDYADSVKGRFTISRDNSKNTLYLQMNSLRPEDTAVYYCNAEILKRAYIDVYVNYWGQGTLVTVSS

Target: cell-bound human DR5 (Colo205 and other human cell lines) (human, UniProt O14763 56-440)
Assay: cell-based or functional assay

Binder	IC50, cell survival, A549 [pM]	IC50, cell survival, BxPC-3 [pM]	IC50, cell survival, Colo205 [pM]	IC50, cell survival, H226 [pM]	IC50, cell survival, H2122 [pM]	IC50, cell survival, Jurkat (72) [pM]	IC50, cell survival, M30 [pM]	IC50, cell survival, MiaPaCa-2 [pM]	IC50, cell survival, Panc-1 [pM]	IC50, cell survival, T24 [pM]	fold improvement of IC50, penta against tetra, A549 [fold]	fold improvement of IC50, penta against tetra, BxPC-3 [fold]	fold improvement of IC50, penta against tetra, Colo205 [fold]	fold improvement of IC50, penta against tetra, H226 [fold]	fold improvement of IC50, penta against tetra, H2122 [fold]	fold improvement of IC50, penta against tetra, Jurkat (72) [fold]	fold improvement of IC50, penta against tetra, M30 [fold]	fold improvement of IC50, penta against tetra, MiaPaCa-2 [fold]	fold improvement of IC50, penta against tetra, Panc-1 [fold]	fold improvement of IC50, penta against tetra, T24 [fold]
B1	> 10000	5	0.7	27.2	0.8	3.6	> 10000	3.8	10.5	4.3	1	6	5	5	7	5	1	5	22	10
B2	> 10000	4.6	1.2	12.4	1.7	1.7	> 10000	3.1	6.7	3.1	1	3	3	14	2	4	1	4	35	7
